Positions count from the first letter of the chain named.

First the molecules themselves.
B1: mAb2.0 Fab (yeast clone culture supernatant) (Fab, V domains shown)
VH: QLQLQESGPGLVKPSETLSLTCTVSGGSISTSSYYWGWIRQPPGKGLEWIGSIYYTGNTYYNPSLKSRVTISVDTSKNQFSLKLSSVTAADTAVYYCARVRYGVGVPRYFDPWGQGTLVTVSS
VL: QSVLTQPPSVSGAPGQRVTISCTGSSSNIGAHYDVHWYQQLPGTAPKLLIYGNDNRPSGVPDRFSGSKSGTSASLAITGLQAEDEADYYCQSYDYSLSGYVFGGGTKLTVL
B2: mAb4.0 Fab (yeast clone culture supernatant) (Fab, V domains shown)
VH: QLQLQESGPGLVKPSETLSLTCTVSGGSIGSRSYYWGWIRQPPGKGLEWIGSIHYSGTTYYNPSLKSRVTISVDTSKNQFSLKLSSVTAADTAVYYCARVAPSYPRVFDYWGQGTLVTVSS
VL: B1 VL with H32G, D54R, S98R, G99V
B3: mAb3.0 Fab (yeast clone culture supernatant) (Fab, V domains shown)
VH: B1 VH with T31S, S32T, Y54H, T56S, R101H, V104G, G105Y, V106I, Y109R, P112H
VL: B1 VL with H32G, D54T, S98R
B4: mAb1.0 Fab (yeast clone culture supernatant) (Fab, V domains shown)
VH: QVQLVESGGGVVQPGRSLRLSCAASGFSFSAYAMHWVRQAPGKGLEWVAVISYDGTNEYYADSVKGRFTISRDNSKNTLYLQMNSLRAEDTAVYYCARGIRIFTSYFDSWGQGTLVTVSS
VL: B1 VL with G52S, D54N, S98R
B5: mAb8.0 Fab (yeast clone culture supernatant) (Fab, V domains shown)
VH: QVQLVQSGAEVKKPGSSVKVSCKASGGTFSNYAISWVRQAPGQGLEWMGGILPILGTVDYAQKFQGRVTITADESTSTAYMELSSLRSEDTAVYYCAREPWYRLGAFDVWGQGTLVTVSS
VL: DIQMTQSPSSLSASVGDRVTITCRASQTIYKYLNWYQQKPGKAPKLLIYAASSLQSGVPSRFSGSGSGTDFTLTISSLQPEDFATYYCQQYSSIPYTFGQGTKVEIK
B6: mAb7.0 Fab (yeast clone culture supernatant) (Fab, V domains shown)
VH: QVQLVESGGGVVQPGRSLRLSCAASGFTFSSYGMHWVRQAPGKGLEWVAVISYGGSERYYADSVKGRFTISRDNSKNTLYLQMNSLRAEDTAVYYCAREPWYSSRGWTGYGFDVWGQGTLVTVSS
VL: EIVLTQSPGTLSLSPGERATLSCRASQSVSSNYLAWYQQKPGQAPKLLIYSASSLQSGVPSRFSGSGSGTDFTLTISSLQPEDFATYYCQQTYSYPPTFGQGTKVEIK
B7: mAb6.0 Fab (yeast clone culture supernatant) (Fab, V domains shown)
VH: QLQLQESGPGLVKPSETLSLTCTVSGGSITSSNYYWGWIRQPPGKGLEWIGSIDYTGSTYYNPSLKSRVTISVDTSKNQFSLKLSSVTAADTAVYYCARGKYYETYLGFDVWGQGTLVTVSS
VL: B1 VL with H32G, D54T, Y95I, Y100W

Chain of hu-IL-36γ (human IL-36γ, N-terminally truncated active form S18-D169) (human) (Q9NZH8 18-169 limits assumed): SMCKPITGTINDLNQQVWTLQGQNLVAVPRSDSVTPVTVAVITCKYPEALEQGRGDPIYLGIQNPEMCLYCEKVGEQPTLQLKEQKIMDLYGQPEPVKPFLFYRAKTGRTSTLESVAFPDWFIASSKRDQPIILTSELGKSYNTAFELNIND
Chain of hu-IL-36α (human IL-36α, N-terminally truncated active form K6-F158) (human) (Q9UHA7 6-158 limits assumed): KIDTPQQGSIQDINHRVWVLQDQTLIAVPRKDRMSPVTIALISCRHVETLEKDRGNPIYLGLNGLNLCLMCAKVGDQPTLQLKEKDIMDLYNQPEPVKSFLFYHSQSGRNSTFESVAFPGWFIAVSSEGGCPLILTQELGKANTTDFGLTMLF

One test addresses T1, hu-IL-36β (human IL-36β, N-terminally truncated active form R5-E157) (human).
T1 sequence: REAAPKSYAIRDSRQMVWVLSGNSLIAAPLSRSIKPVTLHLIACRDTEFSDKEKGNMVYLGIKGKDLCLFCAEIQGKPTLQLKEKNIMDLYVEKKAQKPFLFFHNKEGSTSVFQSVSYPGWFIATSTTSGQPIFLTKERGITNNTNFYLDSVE
The test is described as follows: ELISA, yeast Fab supernatant, anti-Fab-HRP. On the technique in general: In an ELISA, binding on a coated surface is turned into a signal by an enzyme label.
Turning to B1, the ELISA OD450 stood at 0.0604 OD450.

The molecule B2 returned an ELISA OD450 of 0.0513 OD450.

With B3, the ELISA OD450 is 0.11 OD450.

The molecule B4 gave an ELISA OD450 of 0.0523 OD450.

A further test has as its target hu-IL-36γ (human IL-36γ, N-terminally truncated active form S18-D169) (human) (UniProt Q9NZH8). The test is described as follows: ELISA, yeast Fab supernatant, anti-Fab-HRP.
The molecule B5 showed an ELISA OD450 of 0.073 OD450.

Molecule B6 displayed an ELISA OD450 of 0.0724 OD450.

B7 yielded an ELISA OD450 of 0.0656 OD450.

A further test has as its target hu-IL-36α (human IL-36α, N-terminally truncated active form K6-F158) (human) (UniProt Q9UHA7). Nature of the test: ELISA, yeast Fab supernatant, anti-Fab-HRP.
The molecule B5 gave an ELISA OD450 of 0.0698 OD450.

Molecule B6 gave an ELISA OD450 of 0.0604 OD450.

Molecule B7 came in with an ELISA OD450 of 0.0638 OD450.

The values are drawn from patent US20230235040A1.
